The text below walks through data of patent publication US11661676B2, “Cellular high throughput encapsulation for screening or selection” (Universität Zürich, priority 2012, dated 2023).

The nature of this data set: Thermostability assay of ADRA1A derived clones ([3H]prazosin binding after heat challenge). It is filed as physicochemical. The note with it: PBS-E(DCC), no ligand during solubilization, even at 20° C. On the procedure: Detergent-stable ADRA1A library members were selected with FACS using 200 nM BODIPY FL prazosin. (FIG. 8a) 21 selected clones were expressed individually, solubilized and assayed for ligand binding activity after 3 hours in PBS-E(DCC). (FIG. 8b) The top 4 receptors were solubilized in PBS-E(DCC) for 3 h at 20° C. in the absence of ligand. Solubilized receptors were captured from the supernatant with streptavidin paramagnetic beads at 4° C. for 1 h. ADRA1ADCCA3 (black circles), ADRA1ADCCG4 (grey open squares), ADRA1ADCCD7 (black crosses) or ADRA1ADCCD8 (grey open circles) coated beads were either treated with 20 nM [^3H]prazosin for 1 h before being thermally challenged for 30 min at increasing temperatures or […] treated with 20 nM [^3H]prazosin after heating in the absence of ligand. […] Parallel measurements were taken for every receptor in the presence of 10 μM unlabeled prazosin as a competitor to determine the specific […] signal. Data points are plotted as the mean of duplicate measurements, 100% represents the signal measured after heating at 20° C. for 30 min. Error bars indicate the standard error of the mean.
For ADRA1A derived clones, expression and sonication was conducted as above, but the pellet was solubilized in PBS-E(DCC) containing 50 mg/ml chicken lysozyme at 20° C. with vigorous shaking for 3 h in the absence of ligand. […]

B1: wild-type ADRA1A: wild-type alpha 1A adrenergic receptor, parental receptor (protein, UniProt P35348 1-466, looked up)
Alpha-1A adrenergic receptor: MVFLSGNASDSSNCTQPPAPVNISKAILLGVILGGLILFGVLGNILVILSVACHRHLHSVTHYYIVNLAVADLLLTSTVLPFSAIFEVLGYWAFGRVFCNIWAAVDVLCCTASIMGLCIISIDRYIGVSYPLRYPTIVTQRRGLMALLCVWALSLVISIGPLFGWRQPAPEDETICQINEEPGYVLFSALGSFYLPLAIILVMYCRVYVVAKRESRGLKSGLKTDKSDSEQVTLRIHRKNAPAGGSGMASAKTKTHFSVRLLKFSREKKAAKTLGIVVGCFVLCWLPFFLVMPIGSFFPDFKPSETVFKIVFWLGYLNSCINPIIYPCSSQEFKKAFQNVLRIQCLCRKQSSKHALGYTLHPPSQAVEGQHKDMVRIPVGSRETFYRISKTDGVCEWKFFSSMPRGSARITVSKDQSSCTTARVRSKSFLQVCCCVGPSTPSLDKNHQVPTIKVHTISLSENGEEV
Regarding B1, the “ligand binding signal when solubilized in the absence of ligand” value is on record as “no significant fluorescence signal was obtained”. Besides, the “ligand binding signal when solubilized in the absence of ligand” value (listed as ADRA1A) was “No significant signal could be measured”.
